From patent US20250171512A1 come the findings set out here.

FGF21, human (SEQ ID NO: 2), with N-terminal tag, sequence (Q9NSA1 29-209 L174P): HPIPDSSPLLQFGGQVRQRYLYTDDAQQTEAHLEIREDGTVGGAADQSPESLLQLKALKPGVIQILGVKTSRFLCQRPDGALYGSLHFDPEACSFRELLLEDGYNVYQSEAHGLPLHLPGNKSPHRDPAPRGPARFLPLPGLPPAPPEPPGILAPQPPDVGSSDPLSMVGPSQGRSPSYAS
FGF21 S200 deleted (SEQ ID NO: 61), sequence (Q9NSA1 other isoform, or with tags, fused parts or gaps): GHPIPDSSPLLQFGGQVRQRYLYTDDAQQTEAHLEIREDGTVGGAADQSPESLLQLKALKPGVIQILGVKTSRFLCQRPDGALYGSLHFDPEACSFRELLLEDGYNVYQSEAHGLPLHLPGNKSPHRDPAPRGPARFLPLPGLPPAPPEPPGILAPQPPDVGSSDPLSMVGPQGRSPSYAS
FGF21 V197 deleted, S201 deleted (SEQ ID NO: 69), sequence (Q9NSA1 other isoform, or with tags, fused parts or gaps): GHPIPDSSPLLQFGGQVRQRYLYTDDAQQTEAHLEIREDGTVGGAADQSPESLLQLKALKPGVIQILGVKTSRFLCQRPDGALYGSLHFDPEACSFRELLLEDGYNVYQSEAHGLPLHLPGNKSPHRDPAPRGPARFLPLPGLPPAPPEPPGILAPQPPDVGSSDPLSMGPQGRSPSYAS
FGF21 S204 deleted (SEQ ID NO: 65), sequence (Q9NSA1 other isoform, or with tags, fused parts or gaps): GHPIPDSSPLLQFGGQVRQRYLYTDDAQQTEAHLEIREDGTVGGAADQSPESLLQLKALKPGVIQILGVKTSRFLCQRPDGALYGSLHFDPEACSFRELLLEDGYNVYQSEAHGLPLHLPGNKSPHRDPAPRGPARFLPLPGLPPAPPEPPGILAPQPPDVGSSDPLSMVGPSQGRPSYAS
FGF21 Q184 deleted (SEQ ID NO: 60), sequence (Q9NSA1 other isoform, or with tags, fused parts or gaps): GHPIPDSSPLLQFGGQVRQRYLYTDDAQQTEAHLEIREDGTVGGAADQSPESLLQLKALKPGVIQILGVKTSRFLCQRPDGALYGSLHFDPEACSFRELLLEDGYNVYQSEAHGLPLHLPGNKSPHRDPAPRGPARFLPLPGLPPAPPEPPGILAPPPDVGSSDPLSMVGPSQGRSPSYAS
FGF21 Y207 deleted (SEQ ID NO: 68), sequence (Q9NSA1 other isoform, or with tags, fused parts or gaps): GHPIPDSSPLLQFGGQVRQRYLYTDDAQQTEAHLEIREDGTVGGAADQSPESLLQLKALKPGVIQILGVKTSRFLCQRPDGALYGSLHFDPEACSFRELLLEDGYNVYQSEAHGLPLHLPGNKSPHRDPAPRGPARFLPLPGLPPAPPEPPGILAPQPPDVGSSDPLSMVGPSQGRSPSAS
FGF21 V197 deleted (SEQ ID NO: 34), sequence (Q9NSA1 other isoform, or with tags, fused parts or gaps): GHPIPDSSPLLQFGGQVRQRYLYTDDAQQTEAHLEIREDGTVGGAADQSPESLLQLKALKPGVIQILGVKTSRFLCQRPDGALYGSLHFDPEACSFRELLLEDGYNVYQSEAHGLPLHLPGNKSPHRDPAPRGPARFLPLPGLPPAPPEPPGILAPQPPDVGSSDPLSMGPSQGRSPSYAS
FGF21 R203 deleted (SEQ ID NO: 64), sequence (Q9NSA1 other isoform, or with tags, fused parts or gaps): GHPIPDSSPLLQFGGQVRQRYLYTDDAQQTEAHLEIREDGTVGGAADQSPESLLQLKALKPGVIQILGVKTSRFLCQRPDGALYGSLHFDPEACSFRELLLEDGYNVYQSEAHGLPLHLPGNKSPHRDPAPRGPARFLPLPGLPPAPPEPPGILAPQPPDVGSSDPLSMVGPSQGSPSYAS
FGF21 S206 deleted (SEQ ID NO: 67), sequence (Q9NSA1 other isoform, or with tags, fused parts or gaps): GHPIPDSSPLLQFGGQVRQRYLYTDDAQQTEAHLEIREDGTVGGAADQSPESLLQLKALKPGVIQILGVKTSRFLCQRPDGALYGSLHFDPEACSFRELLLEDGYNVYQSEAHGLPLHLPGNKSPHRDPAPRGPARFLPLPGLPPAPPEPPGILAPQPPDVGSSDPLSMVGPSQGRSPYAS
FGF21 Q201 deleted (SEQ ID NO: 62), sequence (Q9NSA1 other isoform, or with tags, fused parts or gaps): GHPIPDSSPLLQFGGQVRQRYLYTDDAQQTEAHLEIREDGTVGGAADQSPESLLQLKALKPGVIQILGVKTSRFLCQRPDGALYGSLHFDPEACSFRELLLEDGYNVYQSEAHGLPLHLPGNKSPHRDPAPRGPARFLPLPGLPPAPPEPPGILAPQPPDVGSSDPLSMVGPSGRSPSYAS
FGF21 S191 deleted (SEQ ID NO: 53), sequence (Q9NSA1 other isoform, or with tags, fused parts or gaps): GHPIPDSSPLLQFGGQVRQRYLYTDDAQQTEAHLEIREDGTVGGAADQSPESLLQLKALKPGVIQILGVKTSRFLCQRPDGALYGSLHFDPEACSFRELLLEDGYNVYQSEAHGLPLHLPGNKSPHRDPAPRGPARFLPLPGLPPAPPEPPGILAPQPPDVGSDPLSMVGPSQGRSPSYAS

The target in the test is human FGFR1c together with human beta-Klotho (KLB), stably expressed on CHO Flp-In cells (human) (UniProt P11362). The test can be described thus: cell-based or functional assay.
human FGFR1c together with human beta-Klotho (KLB), stably expressed on CHO Flp-In cells (human), sequence (P11362 22-822, chain 1 of 2): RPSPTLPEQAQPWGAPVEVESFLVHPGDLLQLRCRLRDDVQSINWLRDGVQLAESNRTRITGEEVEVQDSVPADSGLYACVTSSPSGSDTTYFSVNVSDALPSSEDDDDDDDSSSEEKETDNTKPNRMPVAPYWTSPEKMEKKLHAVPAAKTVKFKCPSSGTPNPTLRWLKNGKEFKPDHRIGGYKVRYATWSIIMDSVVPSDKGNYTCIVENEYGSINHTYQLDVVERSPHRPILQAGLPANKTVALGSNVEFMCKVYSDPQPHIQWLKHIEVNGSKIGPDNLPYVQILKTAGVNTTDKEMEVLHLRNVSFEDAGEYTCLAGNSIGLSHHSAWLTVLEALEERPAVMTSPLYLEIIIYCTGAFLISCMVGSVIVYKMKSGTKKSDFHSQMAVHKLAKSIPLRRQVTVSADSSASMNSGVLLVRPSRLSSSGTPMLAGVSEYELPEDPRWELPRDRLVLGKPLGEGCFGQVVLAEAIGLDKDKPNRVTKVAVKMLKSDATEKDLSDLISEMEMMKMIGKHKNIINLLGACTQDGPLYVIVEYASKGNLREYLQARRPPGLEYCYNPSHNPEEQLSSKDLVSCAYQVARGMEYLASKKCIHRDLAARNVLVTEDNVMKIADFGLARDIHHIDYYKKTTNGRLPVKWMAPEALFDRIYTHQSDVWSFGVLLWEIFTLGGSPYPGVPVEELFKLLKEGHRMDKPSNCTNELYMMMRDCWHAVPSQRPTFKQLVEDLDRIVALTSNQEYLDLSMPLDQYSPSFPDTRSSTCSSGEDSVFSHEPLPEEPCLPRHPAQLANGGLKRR
human FGFR1c together with human beta-Klotho (KLB), stably expressed on CHO Flp-In cells (human), sequence (Q86Z14 whole entry, chain 2 of 2, further chain): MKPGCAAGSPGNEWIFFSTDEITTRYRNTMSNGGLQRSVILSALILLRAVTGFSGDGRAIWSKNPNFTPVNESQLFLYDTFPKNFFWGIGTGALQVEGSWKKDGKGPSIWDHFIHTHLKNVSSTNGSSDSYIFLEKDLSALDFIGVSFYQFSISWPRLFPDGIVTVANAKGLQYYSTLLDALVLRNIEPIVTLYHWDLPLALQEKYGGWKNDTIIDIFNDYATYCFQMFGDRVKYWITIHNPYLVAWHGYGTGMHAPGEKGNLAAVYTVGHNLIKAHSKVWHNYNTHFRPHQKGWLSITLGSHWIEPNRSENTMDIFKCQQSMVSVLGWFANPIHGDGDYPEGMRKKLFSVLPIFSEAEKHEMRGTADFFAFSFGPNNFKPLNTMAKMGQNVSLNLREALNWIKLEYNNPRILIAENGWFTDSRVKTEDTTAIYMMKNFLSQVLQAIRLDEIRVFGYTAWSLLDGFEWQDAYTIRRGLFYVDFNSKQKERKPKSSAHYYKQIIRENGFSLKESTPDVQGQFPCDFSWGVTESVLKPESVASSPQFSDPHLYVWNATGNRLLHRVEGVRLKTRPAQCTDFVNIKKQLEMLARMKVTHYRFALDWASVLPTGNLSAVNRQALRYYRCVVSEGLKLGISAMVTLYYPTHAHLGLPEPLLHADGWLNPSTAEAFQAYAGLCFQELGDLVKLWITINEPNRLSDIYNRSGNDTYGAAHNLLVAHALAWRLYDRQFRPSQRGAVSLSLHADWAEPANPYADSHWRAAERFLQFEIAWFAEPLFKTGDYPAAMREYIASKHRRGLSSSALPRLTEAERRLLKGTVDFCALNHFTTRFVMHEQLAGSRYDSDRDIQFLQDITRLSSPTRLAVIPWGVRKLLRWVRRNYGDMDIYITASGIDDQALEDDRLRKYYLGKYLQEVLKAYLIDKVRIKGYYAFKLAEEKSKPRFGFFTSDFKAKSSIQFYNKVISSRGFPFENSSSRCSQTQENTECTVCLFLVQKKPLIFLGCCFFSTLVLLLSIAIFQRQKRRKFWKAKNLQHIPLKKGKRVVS
On to “FGF21 Q104C, H140C (SEQ ID NO: 108) (from UniProt Q9NSA1 29-209) (ligand)”, for which the pERK ICW EC50 worked out at 21.9 nmol/L.

The substance “FGF21 Q104C, S137C (SEQ ID NO: 107) (from UniProt Q9NSA1 29-209) (ligand)” had a pERK ICW EC50 of 1.83 nmol/L.

As to “FGF21 Q184 deleted (SEQ ID NO: 60) (from UniProt Q9NSA1 29-209) (ligand)”, the pERK ICW EC50 turned out to be 2.26 nmol/L.

Take “FGF21 Q201 deleted (SEQ ID NO: 62) (from UniProt Q9NSA1 29-209) (ligand)”: the pERK ICW EC50 was 1.91 nmol/L.

“FGF21 R47C, P174C (SEQ ID NO: 90) (from UniProt Q9NSA1 29-209) (ligand)” showed a pERK ICW EC50 of 14.5 nmol/L.

“FGF21 R100C, L114C (SEQ ID NO: 103) (from UniProt Q9NSA1 29-209) (ligand)” came in with a pERK ICW EC50 of 48.2 nmol/L.

For the substance “FGF21 R124C, Q136C (SEQ ID NO: 115) (from UniProt Q9NSA1 29-209) (ligand)”, the pERK ICW EC50 was 22.6 nmol/L.

Substance “FGF21 R203 deleted (SEQ ID NO: 64) (from UniProt Q9NSA1 29-209) (ligand)” showed a pERK ICW EC50 of 6.69 nmol/L.

Substance “FGF21 S76C, S79C (SEQ ID NO: 85) (from UniProt Q9NSA1 29-209) (ligand)” came in with a pERK ICW EC50 of 1.44 nmol/L.

“FGF21 S76C, S79C, G198Y (SEQ ID NO: 39) (from UniProt Q9NSA1 29-209) (ligand)”: the pERK ICW EC50 amounted to 0.15 nmol/L.

In the case of “FGF21 S76C, S79C, P199 deleted (SEQ ID NO: 38) (from UniProt Q9NSA1 29-209) (ligand)”, the pERK ICW EC50 amounted to 1.25 nmol/L.

Consider “FGF21 S137C, H140C (SEQ ID NO: 84) (from UniProt Q9NSA1 29-209) (ligand)”, for which the pERK ICW EC50 stood at 3.87 nmol/L.

Consider “FGF21 S191 deleted (SEQ ID NO: 53) (from UniProt Q9NSA1 29-209) (ligand)”, for which the pERK ICW EC50 stood at 97.3 nmol/L.

“FGF21 S195C, S200C (SEQ ID NO: 8) (from UniProt Q9NSA1 29-209) (ligand)” returned a pERK ICW EC50 of 10.8 nmol/L.

Turning to “FGF21 S200 deleted (SEQ ID NO: 61) (from UniProt Q9NSA1 29-209) (ligand)”, the pERK ICW EC50 is 1.17 nmol/L.

As to “FGF21 S200Q, Q201S (SEQ ID NO: 25) (from UniProt Q9NSA1 29-209) (ligand)”, the pERK ICW EC50 was 1.62 nmol/L.

Take “FGF21 S204 deleted (SEQ ID NO: 65) (from UniProt Q9NSA1 29-209) (ligand)”: the pERK ICW EC50 was found to be 25.7 nmol/L.

For the substance “FGF21 S206 deleted (SEQ ID NO: 67) (from UniProt Q9NSA1 29-205) (ligand)”, the pERK ICW EC50 was 31.9 nmol/L.

Turning to “FGF21 V69C, L110C (SEQ ID NO: 113) (from UniProt Q9NSA1 29-209) (ligand)”, the pERK ICW EC50 came to 11.7 nmol/L.

Regarding “FGF21 V197 deleted (SEQ ID NO: 34) (from UniProt Q9NSA1 29-209) (ligand)”, the pERK ICW EC50 stood at 68.8 nmol/L.

In turn, “FGF21 V197 deleted, S201 deleted (SEQ ID NO: 69) (from UniProt Q9NSA1 29-209) (ligand)” registered a pERK ICW EC50 of 98.7 nmol/L.

“FGF21 V197-R203 deleted and replaced by GLNSMV (SEQ ID NO: 28) (from UniProt Q9NSA1 29-209) (ligand)” yielded a pERK ICW EC50 of 78.1 nmol/L.

The substance “FGF21 V197D, G198V, P199D, S200H (SEQ ID NO: 26) (from UniProt Q9NSA1 29-209) (ligand)” came in with a pERK ICW EC50 of 85.8 nmol/L.

The substance “FGF21 V197E (SEQ ID NO: 14) (from UniProt Q9NSA1 29-209) (ligand)” registered a pERK ICW EC50 of 31.4 nmol/L.

Substance “FGF21 Y207 deleted (SEQ ID NO: 68) (from UniProt Q9NSA1 29-206) (ligand)” returned a pERK ICW EC50 of 7.14 nmol/L.

As for “FGF21, human (SEQ ID NO: 2), with N-terminal tag (from UniProt Q9NSA1 29-209) (ligand)”, the pERK ICW EC50 worked out at 1.03 nmol/L.
